To fix the notation:
B1: Mut.2 (dsDNA)
DNA 1: AGTGGAGA
DNA 2: TCTCCACT
B2: CTGAAAAA probe (il-6, il-1b, ccl9, cnbp) (dsDNA)
DNA 1: CTGAAAAA
DNA 2: TTTTTCAG
B3: AAATTAGA probe (il-6, ccl4) (dsDNA)
DNA 1: AAATTAGA
DNA 2: TCTAATTT
B4: 26-nt-AAATTAGT (dsDNA)
DNA 1: TGTAAACAGAAATTAGTATCTCTGCC
DNA 2: GGCAGAGATACTAATTTCTGTTTACA
B5: AAATTAGT probe (il-12b, ccl5, cnbp) (dsDNA)
DNA 1: AAATTAGT
DNA 2: ACTAATTT
B6: AGTTGAGA probe (ccl4) (dsDNA)
DNA 1: AGTTGAGA
DNA 2: TCTCAACT
B7: NF-κB probe (dsDNA)
DNA 1: AATGTGGGATTTTCCCATGA
DNA 2: TCATGGGAAAATCCCACATT
B8: Mut.3 (dsDNA)
DNA 1: AGTTGCCA
DNA 2: TGGCAACT
B9: 26-nt-CTGAAAAA (dsDNA)
DNA 1: GGAACTAGTCTGAAAAAGAAACTAAC
DNA 2: GTTAGTTTCTTTTTCAGACTAGTTCC
B10: Mut.6 (dsDNA)
DNA 1: CTGGGGGA
DNA 2: TCCCCCAG
B11: Mut.5 (dsDNA)
DNA 1: GGGAAAAA
DNA 2: TTTTTCCC

Some results are limits rather than exact numbers.

Chain of GST-CNBP Δ54-178 (CNBP-1-53) (P53996 1-53, stated change not applied): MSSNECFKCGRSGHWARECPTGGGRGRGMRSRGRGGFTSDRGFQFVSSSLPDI

For one series, the target named is T1, GST-CNBP (isoform 1, WT) (mouse, UniProt P53996 1-178). Nature of the series: EMSA. Background: A gel shift assay detects complexes by their altered migration in electrophoresis.
T1 sequence (P53996 whole entry, canonical isoform): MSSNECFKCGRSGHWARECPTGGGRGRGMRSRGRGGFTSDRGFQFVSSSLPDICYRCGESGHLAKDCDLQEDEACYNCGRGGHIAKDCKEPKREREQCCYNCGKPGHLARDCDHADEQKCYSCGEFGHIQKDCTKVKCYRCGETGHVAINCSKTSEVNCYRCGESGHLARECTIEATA
As to B1, the binding signal was > 1 fold of AGTTGAGA.

A further series addresses GST-CNBP Δ54-178 (CNBP-1-53) (mouse, UniProt P53996 1-53, del54-178). Nature of the series: EMSA.
As to B2, the binding result was “binds”.

The target of the next series is T1, GST-CNBP (isoform 1, WT). Nature of the series: EMSA. The source holds these as a separate data set.
On to B3, for which the binding result was “binds”.
On the same count and under the same terms, for B4 the value was “binds”.
Still for that read-out and setting: for B5 the value was “binds”; for GGAGGAGAGAGAGAGAGAGAGAGAGA (mixed) [G-rich 26-nt (strandedness in assay not stated; antisense S140 also listed)], “binds”.
B6: the binding result is “binds”.
On the same count and under the same terms, under B2 stands “binds”; under B7, “no binding”; under B8, “no binding”.
Same read-out and setting: for B9 the value was “binds”.
Still for that read-out and setting: under B10 stands “no binding”.

The target in the next series is T1, GST-CNBP (isoform 1, WT). Nature of the series: EMSA. This is another data set of the same source.
Consider B11, for which the binding signal was > 1 fold of CTGAAAAA.
